T1: rat B7-H4 on cells (rat, UniProt Q501W4 25-257)
T1 construct: Full-length, on transfected HEK293T cells
T1 sequence: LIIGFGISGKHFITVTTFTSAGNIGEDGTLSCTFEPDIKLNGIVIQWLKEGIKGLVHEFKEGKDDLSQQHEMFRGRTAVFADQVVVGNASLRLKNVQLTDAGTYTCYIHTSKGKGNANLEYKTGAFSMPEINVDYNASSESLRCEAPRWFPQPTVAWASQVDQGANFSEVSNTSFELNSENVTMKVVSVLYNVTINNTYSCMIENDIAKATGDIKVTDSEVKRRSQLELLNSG

T2: cynomolgus monkey B7-H4 on cells (cynomolgus monkey, UniProt Q7Z7D3 25-282 (human entry))
T2 construct: Full-length, on transfected HEK293T cells
T2 chain: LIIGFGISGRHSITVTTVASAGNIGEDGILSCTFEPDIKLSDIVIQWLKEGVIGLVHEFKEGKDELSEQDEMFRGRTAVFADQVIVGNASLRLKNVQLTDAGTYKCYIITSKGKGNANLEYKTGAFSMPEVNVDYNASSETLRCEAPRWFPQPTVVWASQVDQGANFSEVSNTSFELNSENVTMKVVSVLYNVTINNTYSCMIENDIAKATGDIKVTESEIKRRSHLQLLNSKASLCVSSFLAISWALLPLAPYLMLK

T3: human B7-H4 on cells (human, UniProt Q7Z7D3 25-282)
T3 construct: Full-length human B7-H4 on transfected HEK293T cells (also aAPCs) or endogenous on SK-BR-3 breast cancer cells; also called SK-BR-3 (endogenous human B7-H4)
T3 sequence: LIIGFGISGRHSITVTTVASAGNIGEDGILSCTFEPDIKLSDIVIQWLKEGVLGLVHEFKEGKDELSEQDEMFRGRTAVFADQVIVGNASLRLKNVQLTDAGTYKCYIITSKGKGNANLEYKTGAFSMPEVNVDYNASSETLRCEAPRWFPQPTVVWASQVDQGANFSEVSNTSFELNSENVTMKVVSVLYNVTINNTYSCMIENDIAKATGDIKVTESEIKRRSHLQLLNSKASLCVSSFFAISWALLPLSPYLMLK

T4: mouse B7-H4 on cells (mouse, UniProt Q7TSP5 25-257)
T4 construct: Full-length, on transfected HEK293T cells
T4 sequence: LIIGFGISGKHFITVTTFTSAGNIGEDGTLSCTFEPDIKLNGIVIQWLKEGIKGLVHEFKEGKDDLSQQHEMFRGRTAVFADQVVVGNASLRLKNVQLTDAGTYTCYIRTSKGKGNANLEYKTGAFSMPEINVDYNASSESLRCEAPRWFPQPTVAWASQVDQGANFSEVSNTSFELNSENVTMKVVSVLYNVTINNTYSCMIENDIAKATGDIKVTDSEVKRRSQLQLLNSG


Assays:
rat B7-H4 on cells = biological target: T1, rat B7-H4 on cells; assay: flow cytometry titration on HEK293T cells transfected with rat B7-H4 (293-ratB7-H4), GEO MFI against antibody concentration
Protocol: (§1) Following incubation, cells were pelleted, washed and incubated with a secondary labeling antibody and samples were acquired on a flow cytometer. Data was analyzed using the FlowJo software and MFI was plotted vs. antibody concentration. The EC50 cell binding potency was calculated using nonlinear regression curve fit (GraphPad Prism).

[1] = biological target: T2, cynomolgus monkey B7-H4 on cells; assay: flow cytometry titration on HEK293T cells transfected with cynomolgus monkey B7-H4 (293-cynoB7-H4), GEO MFI against antibody concentration
Protocol: as §1

human B7-H4 on cells = biological target: T3, human B7-H4 on cells; assay: flow cytometry titration on SK-BR-3 cells (endogenous human B7-H4), GEO MFI against antibody concentration
Protocol: as §1

mouse B7-H4 on cells = biological target: T4, mouse B7-H4 on cells; assay: flow cytometry titration on HEK293T cells transfected with mouse B7-H4 (293-mouseB7-H4), GEO MFI against antibody concentration
Protocol: as §1

[2] = biological target: T5, recombinant human B7-H4-huIgG1 (human); assay: BLI and SPR
T5 construct: the entry begins with the N-terminal leader (MASLG...), no cleavage site is stated; also called B7-H4-hulgGl; B7-H4-extracellular domain (ECD)

binding result (rat B7-H4 on cells)	EC50 (read off the curve) [1]	EC50 (read off the curve) (human B7-H4 on cells)	EC50 (read off the curve) (mouse B7-H4 on cells)	binding result [2]	Binder
binds	~5 nM	~2 nM	~8 nM	–	antibody 20506 (antibody, V domains shown, human IgG1/kappa) VH: QLQLQESGPGLVKPSETLSLTCTASGGSISHGGYYWSWIRQHPGKGLEWIGNIYYSGSTYYNPSLKSRVTMSVDTSKNQFSLKLSSVTAADTAVYYCARESSTISADFDLWGRGTLVTVSS VL: DIQMTQSPSSVSASVGDRVTITCRASQGISRWLAWYQQKPGKAPKLLIYAASSLQSGVPSRFSGSGSGTDFTLTISSLQPEDFATYYCQQAHTFPYTFGGGTKVEIKR
–	–	–	–	binds	antibody 15462 (antibody, human IgG1, kappa, V domains shown, human IgG1/kappa) VH: QLQLQESGPGLVKPSETLSLTCTVSGGSISSSSYYWGWIRQPPGKGLEWIGNIYYSGSTYYNPSLKSRVTISVDTSKNQFSLKLSSVTAADTAVYYCAREGSYTTVLNVWGQGTMVTVSS VL: EIVLTQSPGTLSLSPGERATLSCRASQSVSSSYLAWYQQKPGQAPRLLIYGASSRATGIPDRFSGSGSGTDFTLTISRLEPEDFAVYYCQQAASYPLTFGGGTKVEIKR
–	–	–	–	binds	antibody 15483 (antibody, human IgG1, kappa, V domains shown, human IgG1/kappa) VH: QVQLQESGPGLVKPSQTLSLTCTVSGGSISSGGYYWSWIRQHPGKGLEWIGNIYYSGSTYYNPSLKSRVTISVDTSKNQFSLKLSSVTAADTAVYYCARGLSTIDEAFDPWGQGTLVTVSS VL: not shown
